Laboratory results as given in patent publication US20240254225A1 (INOTREM, published 2024).

T1: recombinant cynomolgus monkey TREM-1 (cynomolgus monkey, UniProt A0A2K5VHG8 21-204)
T1 construct: Soluble recombinant protein injected as SPR analyte; construct not described; also called cTREM-1; cynomolgus TREM-1
T1 sequence: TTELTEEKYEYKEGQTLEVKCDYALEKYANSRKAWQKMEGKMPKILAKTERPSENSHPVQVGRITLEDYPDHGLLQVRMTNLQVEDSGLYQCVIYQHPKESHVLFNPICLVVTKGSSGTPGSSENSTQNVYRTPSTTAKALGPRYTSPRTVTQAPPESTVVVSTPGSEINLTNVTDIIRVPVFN


Assays:
[1] = target: T1, recombinant cynomolgus monkey TREM-1; test: SPR, Fab immobilised, cynomolgus TREM-1 injected; average
Procedure: (§1) Surface plasmon resonance (SPR): in order to evaluate the interaction kinetics for TREM-1 antibodies or Fabs to hTREM-1 (human TREM-1) and cTREM-1 (cynomolgus monkey TREM-1), surface plasmon resonance (SPR) assays were carried out (Biacore™ T200, GE Healthcare Biosciences). The anti-human Fc antibodies (Cytiva) were immobilized on CM5 sensor chip in order to evaluate IgG1 affinities and Fabs were directly immobilized on the chip. Immobilization experiments were performed at 25° C. using HBS-EP+1× running buffer (10 mM HEPES, 150 mM NaCl, 3 mM EDTA, 0.05% surfactant P20, pH 7.4). The anti-human Fc antibodies or Fabs were diluted in 10 mM sodium acetate at acidic pH before the immobilization procedure using amine coupling on the dextran matrix of the sensor chips. […] Following these injections, ethanolamine was injected to deactivate the surface. The immobilization wizard was used to obtain several thousand of immobilized RU (resonance units). The immobilization level was chosen in order to have a proper covering of the sensor chip surface. […] Binding of hTREM-1 or cTREM-1 proteins was conducted by injecting analyte over all flow cells. […] The concentrations were evaluated using the Single Cycle Kinetics method. This approach consists of a sequential injection of increasing concentration of the analyte, with a single regeneration step using a magnesium chloride buffer (Cytiva) at the end of the cycle. Binding affinity of TREM-1 antibodies or Fabs with hTREM-1 or cTREM-1 was quantified by determination of the equilibrium dissociation constant (KD) determined by measurement of the kinetics of complex formation and dissociation.

[2] = target: T1, recombinant cynomolgus monkey TREM-1; test: SPR, Fab immobilised, cynomolgus TREM-1 injected; replicate 1
Procedure: as §1

[3] = target: T1, recombinant cynomolgus monkey TREM-1; test: SPR, Fab immobilised, cynomolgus TREM-1 injected; replicate 2
Procedure: as §1

| Kd [1] | Kd [2] | Kd [3] | Binder |
| --- | --- | --- | --- |
| 62.2 nM | 57.9 nM | 66.6 nM | anti-hTREM-1 Fab fragment INO-10F (Fab, V domains shown, Recombinant chimeric Fab (murine variable regions) made in CHO cells and purified on HisTrap Excel; also called INO-10 Fab) VH: AVQLQQSVAALVRPGASVKLSCTASGFNIKNTYIHWVKQRPEQGLEWIGRIDPANGNTKYAPKFQGKATITADTSSDTAYLQLSSLTSDDTAIYYCTGHYGSTMDYWGQGTSVTVSS VL: not shown |
| 24.6 nM | 24.8 nM | 24.4 nM | humanized anti-TREM-1 Fab fragment INO-10F-4 (Fab, V domains shown, Fab) VH: EVQLVESGGALVKPGGSLRLSCAASGFNIGNTYIHWVRQAPGKGLEWVGRIDPAGGRTKYAPKVKGRFTISADDSKNTAYLQMNSLKTEDTAVYYCTGHRGGTMDYWGQGTLVTVSS VL: EIVLTQSPATLSLSPGERATLSCRASQSVSNYGISFLNWYQQKPGQAPRLLIYAAEYRGRGIPARFSGSGSGTDFTLTISSLEPEDFAVYYCQQSSNVPYTFGQGTKVEIK |
| 56.8 nM | 60.1 nM | 53.4 nM | humanized anti-TREM-1 Fab fragment INO-10F-6 (Fab, V domains shown, Fab) VH: EVQLVESGGALVKPGGSLRLSCAASGFNIGNTYIHWVRQAPGKGLEWVGRIDPAGGRTKYAPKVKGRFTISADDSKNTLYLQMNSLKTEDTAVYYCTGHRGGTMDYWGQGTLVTVSS VL: EIVLTQSPATLSLSPGERATLSCRASQSVSNYGISFLNWYQQKPGQAPRLLIYAAEYRARGIPARFSGSGSGTDFTLTISSLEPEDFAVYYCQQSSNVPYTFGQGTKVEIK |
| 28.3 nM | – | 28.5 nM | humanized anti-TREM-1 Fab fragment INO-10F-2 (Fab, V domains shown, Fab) VH: EVQLVESGGALVKPGGSLRLSCAASGFNIGNTYIHWVRQAPGKGLEWIGRIDPAGGRTKYSPKVQGRFTISAPTSKNTAYLQMNSLKTEDTAVYYCTGHRGGTMDYWGQGTLVTVSS VL: EIVLTQSPATLSLSPGERATLSCRASQSVSNYGISFLNWYQQKPGQAPRLLIYAASYQKRGIPARFSGSGSGTDFTLTISSLEPEDFAVYYCQQSSNFPWTFGQGTKVEIK |
| 7.64 nM | 7.6 nM | 7.68 nM | humanized anti-TREM-1 Fab fragment INO-10F-3 (Fab, V domains shown, Fab) VH: EVQLVESGGALVKPGGSLRLSCAASGFNIDNTYIHWVRQAPGKGLEWIGRIDPAGGRTKYDPKVKGRFTISADTSKNTAYLQMNSLKTEDTAVYYCTGHYGGTMDYWGQGTLVTVSS VL: EIVLTQSPATLSLSPGERATLSCRASESVDNYGISFLNWYQQKPGQAPRLLIYAAEYRGRGIPARFSGSGSGTDFTLTISSLEPEDFAVYYCQQSRHVPYTFGQGTKVEIK |
